Test results from patent US7897573B2, “Selective VPAC2 receptor peptide agonists” (priority 2005, dated 2011).
Where no end group is shown, it is not given here.

Columns and labels:
Human VPAC1 Receptor = biological target: T1, Human VPAC1 Receptor (Homo sapiens, UniProt P32241); experiment: Filter binding assay, 125I-labeled VIP, membranes of cells transiently transfected with human VPAC1; conditions: 125I-labeled VIP tracer
T1 construct: expressed in transfected cells
T1 sequence (P32241 31-457): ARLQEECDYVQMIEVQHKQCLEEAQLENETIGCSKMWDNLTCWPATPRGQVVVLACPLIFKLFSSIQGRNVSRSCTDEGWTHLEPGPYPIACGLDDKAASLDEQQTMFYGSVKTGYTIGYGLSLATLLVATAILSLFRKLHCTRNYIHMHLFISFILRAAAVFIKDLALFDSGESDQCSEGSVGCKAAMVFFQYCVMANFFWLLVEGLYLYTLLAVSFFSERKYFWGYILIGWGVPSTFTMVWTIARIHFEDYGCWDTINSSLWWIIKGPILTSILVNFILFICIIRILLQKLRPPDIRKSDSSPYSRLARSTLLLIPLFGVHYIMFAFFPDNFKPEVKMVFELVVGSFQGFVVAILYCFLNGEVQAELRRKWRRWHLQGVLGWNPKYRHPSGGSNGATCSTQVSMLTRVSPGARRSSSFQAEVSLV

Human PAC1 Receptor = biological target: T2, Human PAC1 Receptor (Homo sapiens, UniProt P41586); experiment: Filter binding assay, 125I-labeled PACAP-27, membranes of cells transiently transfected with human PAC1; conditions: 125I-labeled PACAP-27 tracer
T2 construct: expressed in transfected cells
T2 sequence (P41586 21-468): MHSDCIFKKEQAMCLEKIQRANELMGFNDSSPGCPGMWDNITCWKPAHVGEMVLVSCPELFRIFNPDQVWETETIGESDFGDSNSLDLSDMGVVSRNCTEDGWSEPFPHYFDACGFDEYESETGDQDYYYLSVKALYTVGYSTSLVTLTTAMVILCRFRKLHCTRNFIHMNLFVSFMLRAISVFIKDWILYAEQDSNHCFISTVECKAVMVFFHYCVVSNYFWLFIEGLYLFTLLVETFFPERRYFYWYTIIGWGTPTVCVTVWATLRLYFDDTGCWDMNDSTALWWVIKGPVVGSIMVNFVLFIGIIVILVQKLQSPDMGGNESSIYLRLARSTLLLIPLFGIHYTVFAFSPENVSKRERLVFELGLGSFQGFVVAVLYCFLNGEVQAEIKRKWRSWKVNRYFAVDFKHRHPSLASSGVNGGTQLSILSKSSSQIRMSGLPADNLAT
Protocol: For this assay, the solutions and equipment include:
Presoak solution: 0.5% Polyethyleneamine in Aqua dest
Buffer for flushing filter plates: 25 mM HEPES pH 7.4
Blocking buffer: 25 mM HEPES pH 7.4; 0.2% protease free BSA
Assay buffer: 25 mM HEPES pH 7.4; 0.5% protease free BSA
Dilution and assay plate: PS-Microplate, U form
Filtration Plate Multiscreen FB Opaque Plate; […] Type B Glasfiber filter
In order to prepare the filter plates, the presoak solution is aspirated by vacuum filtration. The plates are flushed twice with 200 μL flush buffer. 200 μL blocking buffer is added to the filter plate. The filter plate is then incubated with 200 μL presoak solution for 1 hour at room temperature.
The assay plate is filled with 25 μL assay buffer, 25 μL membranes (2.5 μg) suspended in assay buffer, 25 μL agonist in assay buffer, and 25 μL tracer (about 40000 cpm) in assay buffer. The filled plate is incubated for 1 hour with shaking.
The transfer from assay plate to filter plate is conducted. The blocking buffer is aspirated by vacuum filtration and washed two times with flush buffer. 90 μL is transferred from the assay plate to the filter plate. The 90 μL transferred from assay plate is aspirated and washed three times with 200 μL flush buffer. The plastic support is removed. It is dried for 1 hour at 60° C. 30 μL Microscint is added. The count is performed.

Normal Wistar rats = experiment: Intravenous glucose tolerance test (IVGTT); type: in vivo, rat; conditions: for insulin response to the i.v. glucose challenge: FIG. 1, animals treated 24 h prior to the glucose injection, versus vehicle-treated animals
Protocol: Intravenous glucose tolerance test (IVGTT): Normal Wistar rats are fasted overnight and are anesthetized prior to the experiment. A blood sampling catheter is inserted into the rats. The agonist is given subcutaneously, normally 24 h prior to the glucose challenge. Blood samples are taken from the carotid artery. A blood sample is drawn immediately prior to the injection of glucose along with the agonist. After the initial blood sample, glucose mixed is injected intravenously (i.v.). A glucose challenge of 0.5 g/kg body weight is given, injecting a total of 1.5 mL vehicle with glucose and agonist per kg body weight. The peptide concentrations are varied to produce the desired dose in μg/kg. Blood samples are drawn at 2, 4, 6 and 10 minutes after giving glucose. The control group of animals receives the same vehicle along with glucose, but with no agonist added. In some instances, 20 and 30 minute post-glucose blood samples were drawn. Aprotinin is added to the blood sample (250-500 kIU/ml blood). The plasma is then analyzed for glucose and insulin using standard methodologies.
The assay uses a formulated and calibrated peptide stock in PBS. Normally, this stock is a prediluted 100 μM stock. However, a more concentrated stock with approximately 1 mg agonist per mL is used. The specific concentration is always known. Variability in the maximal response is mostly due to variability in the vehicle dose.

[1] = Pharmacokinetic profiles of PEGylated peptides in Fisher 344 rats; type: in vivo, rat; conditions: 100 μg agonist/kg, plasma RIA, mean N = 3
Summary of the method: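 Healthy rats (n=3/group) received 100 μg agonist/kg in PBS, dose based on peptide content; route not given. Plasma sampled 3–168 h post-dose, peptide quantified by N-terminal-directed RIA, PK parameters derived by model-independent analysis.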

[2] = Rat serum stability study (DiscoveRx cAMP read-out on CHO-VPAC2 cells); conditions: EC50, 4° C./EC50, 37° C., values >100% may represent release of intact peptide from the PEG conjugate; for 24 h stab (%): 24 h in rat serum at 37° C.; for 72 h stab (%): 72 h in rat serum at 37° C.
Human VPAC2 Receptor = biological target: T3, Human VPAC2 Receptor (Homo sapiens, UniProt P41587); experiment: Alpha screen cAMP potency at human VPAC2 receptor; type: cell-based; conditions: cAMP generation; read-out: Human VPAC2 Receptor: Alphascreen (EC50; nM)
T3 sequence (P41587 24-438): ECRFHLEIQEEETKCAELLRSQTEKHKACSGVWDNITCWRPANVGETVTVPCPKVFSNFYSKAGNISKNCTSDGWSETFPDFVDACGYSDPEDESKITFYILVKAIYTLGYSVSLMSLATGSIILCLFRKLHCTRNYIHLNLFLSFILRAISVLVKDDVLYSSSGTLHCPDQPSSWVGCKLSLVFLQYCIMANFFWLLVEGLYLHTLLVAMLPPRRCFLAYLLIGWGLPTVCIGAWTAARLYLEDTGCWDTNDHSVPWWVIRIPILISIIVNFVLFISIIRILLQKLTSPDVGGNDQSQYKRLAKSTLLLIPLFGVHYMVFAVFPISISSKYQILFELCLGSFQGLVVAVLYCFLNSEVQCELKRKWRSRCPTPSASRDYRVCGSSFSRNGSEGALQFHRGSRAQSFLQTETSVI
Protocol: Alpha screen: Cells are washed in the culture flask once with PBS. Then, the cells are rinsed with enzyme free dissociation buffer. The dissociated cells are removed. The cells are then spun down and washed in stimulation buffer. For each data point, 50,000 cells suspended in stimulation buffer are used. To this buffer, Alpha screen acceptor beads are added along with the stimuli. This mixture is incubated for 60 minutes. Lysis buffer and Alpha screen donor beads are added and are incubated for 60 to 120 minutes. The Alpha screen signal (indicative of intracellular cAMP levels) is read in a suitable instrument (e.g. AlphaQuest from Perkin-Elmer). Steps including Alpha screen donor and acceptor beads are performed in reduced light. The EC50 for cAMP generation is calculated from the raw signal or is based on absolute cAMP levels as determined by a standard curve performed on each plate.
The tested peptide concentrations are: 10000, 1000, 100, 10, 3, 1, 0.1, 0.01, 0.003, 0.001, 0.0001 and 0.00001 nM.

Rat VPAC2 Receptor = biological target: T4, Rat VPAC2 Receptor (Rattus norvegicus, UniProt P35000); experiment: DiscoveRx cAMP potency, CHO-PO cells transiently transfected with rat VPAC2 receptor; type: cell-based; conditions: cAMP generation
T4 construct: expressed in transfected cells; host or cells: CHO-PO (transient, Lipofectamine)
T4 sequence (P35000 23-437): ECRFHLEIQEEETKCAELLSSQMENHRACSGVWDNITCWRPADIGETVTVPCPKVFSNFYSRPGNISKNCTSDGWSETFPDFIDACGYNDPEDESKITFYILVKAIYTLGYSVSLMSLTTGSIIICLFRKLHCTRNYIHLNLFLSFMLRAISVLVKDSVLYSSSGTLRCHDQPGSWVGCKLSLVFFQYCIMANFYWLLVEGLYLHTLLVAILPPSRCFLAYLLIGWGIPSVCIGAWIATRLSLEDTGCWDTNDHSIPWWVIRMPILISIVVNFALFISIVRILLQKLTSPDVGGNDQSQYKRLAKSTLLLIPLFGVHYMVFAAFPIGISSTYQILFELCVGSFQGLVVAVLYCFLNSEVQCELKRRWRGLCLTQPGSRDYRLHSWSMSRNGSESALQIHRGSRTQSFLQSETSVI
Protocol: DiscoveRx: CHO-PO cells are transiently transfected with rat VPAC1 or VPAC2 receptor DNA using commercially available transfection reagents (Lipofectamine from Invitrogen). The cells are seeded at a density of 10,000/well in a 96-well plate and are allowed to grow for 3 days in […] culture medium At day 3, the assay is performed.
On the day of the experiment, the medium is removed. Also, the cells are washed twice. The cells are incubated in assay buffer plus IBMX for 15 minutes at room temperature. Afterwards, the stimuli are added and are dissolved in assay buffer. The stimuli are present for 30 minutes. Then, the assay buffer is gently removed. The cell lysis reagent of the DiscoveRx cAMP kit is added. Thereafter, the standard protocol for developing the cAMP signal as described by the manufacturer is used (DiscoveRx Inc., USA). EC50 values for cAMP generation are calculated from the raw signal or are based on absolute cAMP levels as determined by a standard curve performed on each plate.
Results for each agonist are the mean of two independent runs. Rat VPAC1 and VPAC2 results are only generated using the DiscoveRx assay.

[3] = AUC insulin, 0-10 min after glucose, 24 h between glucose & compound, Wistar rats

C6-HSDAVFTEQY(OMe)TOrnLRAibQLAAbuAibOrnYAibQAibIOrnOrnGGPSSGAPPPC(PEG20K)C(PEG20K)-NH2 (HSDAVFTEQYTXLRXQLAXXXYXQXIXXGGPSSGAPPPCC; C6 acyl, two PEG20K, C-terminal amide; Synthetic sequence PEGylated VPAC2 receptor agonist) [Agonist P525]
IC50 (Human VPAC1 Receptor): > 25000 nM | IC50 (Human PAC1 Receptor): > 25000 nM | % increase AUC: Dose = 0.1 mg/kg (Normal Wistar rats; [3]): 72% | % increase AUC: Dose = 0.3 mg/kg (Normal Wistar rats; [3]): 208% | insulin response to the i.v. glucose challenge (Normal Wistar rats): enhancement of the insulin response | AUC0-last [1]: 4740 ng·h/mL | Cl/F [1]: 0.333 mL/min/kg | Cmax [1]: 133 ng/mL | Tmax [1]: 16 h | T½ [1]: 22 h | 24 h stab (%) [2]: 298% | 72 h stab (%) [2]: 353%

C6-HSDAVFTEQY(OMe)TOrnLRAibQLAAbuAibOrnyAibQSIOrnOrnGGPSSGAPPPC(PEG30K)C(PEG30K)-NH2 (HSDAVFTEQYTXLRXQLAXXXYXQSIXXGGPSSGAPPPCC; not fully specified (some residues, N-terminus, C-terminus); printed as C6-HSDAVFTEQY(OMe)TOrnLRAibQLAAbuAibOrnyAibQSIOrnOrnGGPSSGAPPPC(PEG30K)C(PEG30K)-NH2; cysteine pairing not given here) [Agonist P602]
IC50 (Human VPAC1 Receptor): > 25000 nM | IC50 (Human PAC1 Receptor): > 25000 nM | % increase AUC: Dose = 0.09 mg/kg (Normal Wistar rats; AUC insulin, 0-10 min after glucose, 0.09 mg/kg, 24 h between glucose & compound, Wistar rats): 73% | % increase AUC: Dose = 0.3 mg/kg (Normal Wistar rats; [3]): 198% | 24 h stab (%) [2]: 573%

C6-HSDAVFTEQY(OMe)TOrnLRAibQVAAAibK(CO(CH2)2SPEG40K)YLQSIOrnOrnGGPSSGAPPPS-NH2 (HSDAVFTEQYTXLRXQVAAXXYLQSIXXGGPSSGAPPPS; C6 acyl; PEG40K; non-natural residues; amide; Synthetic sequence PEGylated VPAC2 receptor peptide agonist) [Agonist P472]
EC50 (Human VPAC2 Receptor): 123 nM | EC50 (Rat VPAC2 Receptor): 285 nM | 24 h stab (%) [2]: 66%

C6-HSDAVFTEQY(OMe)TOrnLRAibQVAAAibOrnYLQSIOrnC(PEG20K)OrnGGPSSGAPPPC(PEG20K)-NH2 (HSDAVFTEQYTXLRXQVAAXXYLQSIXCXGGPSSGAPPPC; C6 acyl, two PEG20K, C-terminal amide; Synthetic sequence PEGylated VPAC2 receptor agonist) [Agonist P505]
IC50 (Human VPAC1 Receptor): > 25000 nM | IC50 (Human PAC1 Receptor): > 25000 nM | % increase AUC: Dose = 0.1 mg/kg (Normal Wistar rats; [3]): 12% | % increase AUC: Dose = 0.3 mg/kg (Normal Wistar rats; [3]): 74% | insulin response to the i.v. glucose challenge (Normal Wistar rats): enhancement of the insulin response | AUC0-last [1]: 7006 ng·h/mL | Cl/F [1]: 0.217 mL/min/kg | Cmax [1]: 160 ng/mL | Tmax [1]: 12 h | T½ [1]: 22 h | 24 h stab (%) [2]: 133% | 72 h stab (%) [2]: 161%
